Reference: article PMC7618248, “VEL-dependent polymerization maintains the chromatin association of Polycomb proteins for the switch to epigenetic silencing” (Molecular cell, 2025)

Biological target: the molecule itself
Assay: SEC-MALS; purified Lip-VIN3VEL at increasing concentrations from 50 uM to 1250 uM; Superose6 Increase 10/300 column

B1: Lip-VIN3VEL (residues 500-603) wild type (domain or fragment, Arabidopsis thaliana, UniProt Q9FIE3 500-603, looked up)
chain: GKQGGNKRFKSRTVSLNEKPEINNAANGVGDKDLGHIVKTIRCLEEEGHIDKSFRERFLTWYSLRATHREVRVVKIFVETFMEDLSSLGQQLVDTFSESILSKR
notes: VIN3 VEL domain construct, Arabidopsis thaliana, residues 500-603; The end of the tag is read from the name Lip-VIN3VEL; also called WT VIN3VEL; 6xHisLip-tagged VIN3VEL; source: Escherichia coli, purified; not shown: 6xHis-Lip (lipoyl solubility tag), N-terminal, kept
binding result: binds

B2: Lip-VIN3VEL (residues 500-603) I575T (domain or fragment, Arabidopsis thaliana, UniProt Q9FIE3 500-603, looked up)
chain: GKQGGNKRFKSRTVSLNEKPEINNAANGVGDKDLGHIVKTIRCLEEEGHIDKSFRERFLTWYSLRATHREVRVVKTFVETFMEDLSSLGQQLVDTFSESILSKR
notes: VIN3 VEL domain construct, Arabidopsis thaliana, residues 500-603, with I575 changed to the threonine found at the corresponding position of VRN5; The end of the tag is read from the name Lip-VIN3VEL; also called I575T mutant Lip-VIN3VEL; VIN3VEL I575T; source: Escherichia coli, purified; not shown: 6xHis-Lip (lipoyl solubility tag), N-terminal, kept
binding result: binds
